The assay concerns the target Human C1q (human) (UniProt P02745). Put plainly: ELISA: antibody coated on the plate at the concentration shown, human C1q added at 10 ug/mL, detection with sheep anti-human C1q-HRP, OD450.

Chain of Human C1q (human) (P02745 23-245 limits assumed, chain 1 of 3): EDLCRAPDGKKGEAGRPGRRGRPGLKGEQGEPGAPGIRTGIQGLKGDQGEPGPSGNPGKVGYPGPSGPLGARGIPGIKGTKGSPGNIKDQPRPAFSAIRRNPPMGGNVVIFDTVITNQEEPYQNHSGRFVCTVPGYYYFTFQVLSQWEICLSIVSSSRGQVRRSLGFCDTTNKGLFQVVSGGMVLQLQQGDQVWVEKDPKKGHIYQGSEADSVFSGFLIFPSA
Chain of Human C1q (human) (P02746 28-253 limits assumed, chain 2 of 3, further chain): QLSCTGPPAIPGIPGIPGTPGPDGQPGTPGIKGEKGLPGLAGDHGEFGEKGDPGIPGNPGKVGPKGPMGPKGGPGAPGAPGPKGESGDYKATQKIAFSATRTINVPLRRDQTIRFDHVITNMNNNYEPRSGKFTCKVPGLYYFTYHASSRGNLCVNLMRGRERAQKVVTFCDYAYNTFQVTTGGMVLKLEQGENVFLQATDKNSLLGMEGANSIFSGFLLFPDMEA
Chain of Human C1q (human) (P02747 29-245 limits assumed, chain 3 of 3, further chain): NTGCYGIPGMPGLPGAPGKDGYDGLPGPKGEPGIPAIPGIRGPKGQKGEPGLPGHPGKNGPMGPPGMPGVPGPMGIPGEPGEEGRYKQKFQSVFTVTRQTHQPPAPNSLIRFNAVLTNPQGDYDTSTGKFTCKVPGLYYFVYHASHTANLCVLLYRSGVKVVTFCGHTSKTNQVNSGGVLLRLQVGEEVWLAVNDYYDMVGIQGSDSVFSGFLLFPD

The substance human IgG1 isotype control antibody came in with an EC50 (read off the curve) of 2 µg/mL.
